Starred links: 1 amine or outer side, 2 acyl side, 3 side chain; linkers in the order of their positions; H or OH if unused. Non-standard residues stand in square brackets, D forms with d. Primed or numbered codes have the meaning given here. *: point of attachment. C20 diacid = O=C(O)CCCCCCCCCCCCCCCCCCC(=O)*; γGlu = O=C(O)[C@H](CCC(=O)[*:2])N[*:1]; βAsp = O=C(O)[C@H](CC(=O)[*:2])N[*:1]; Hyp = O=C(O)[C@@H]1C[C@@H](O)CN1; Inp′ = not defined here; Trx′ = not defined here; AEEA = NCCOCCOCC(=O)O

First the molecules themselves.
T1: human amylin receptor on CHO-K1/Ga15/AMY3 cells (amylin receptor/CRE-luc cell line) (human) (UniProt P30988)
T1 sequence (looked up) 1: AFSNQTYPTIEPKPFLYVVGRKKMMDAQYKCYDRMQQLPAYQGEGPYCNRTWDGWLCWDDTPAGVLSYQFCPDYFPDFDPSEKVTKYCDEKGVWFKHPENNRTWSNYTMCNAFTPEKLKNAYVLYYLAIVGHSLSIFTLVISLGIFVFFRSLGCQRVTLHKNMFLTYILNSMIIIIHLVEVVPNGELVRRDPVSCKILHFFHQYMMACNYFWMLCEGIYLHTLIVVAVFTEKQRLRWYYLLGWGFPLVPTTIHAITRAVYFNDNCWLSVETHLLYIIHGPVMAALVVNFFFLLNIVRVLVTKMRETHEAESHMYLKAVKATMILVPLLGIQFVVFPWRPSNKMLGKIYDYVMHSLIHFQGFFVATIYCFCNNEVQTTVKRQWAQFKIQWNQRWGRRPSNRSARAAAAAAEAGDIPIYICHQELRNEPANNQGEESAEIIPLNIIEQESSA
T1 sequence (looked up) 2: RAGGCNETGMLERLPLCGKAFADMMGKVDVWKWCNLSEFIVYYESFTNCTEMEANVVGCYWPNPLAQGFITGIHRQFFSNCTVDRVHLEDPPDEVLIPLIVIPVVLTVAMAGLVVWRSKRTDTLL

B1: M33 (peptide)
peptide: {C20 diacid-βAsp-AEEA-AEEA}-ASQLSTAATQRLADFLRHSSNNLKPILPPTNVGSNT[Hyp]-NH2
SMILES: CC[C@H](C)[C@H](NC(=O)[C@@H]1CCCN1C(=O)[C@H](CCCCN)NC(=O)[C@H](CC(C)C)NC(=O)[C@H](CC(N)=O)NC(=O)[C@H](CC(N)=O)NC(=O)[C@H](CO)NC(=O)[C@H](CO)NC(=O)[C@H](Cc1c[nH]cn1)NC(=O)[C@H](CCCNC(=N)N)NC(=O)[C@H](CC(C)C)NC(=O)[C@H](Cc1ccccc1)NC(=O)[C@H](CC(=O)O)NC(=O)[C@H](C)NC(=O)[C@H](CC(C)C)NC(=O)[C@H](CCCNC(=N)N)NC(=O)[C@H](CCC(N)=O)NC(=O)[C@@H](NC(=O)[C@H](C)NC(=O)[C@H](C)NC(=O)[C@@H](NC(=O)[C@H](CO)NC(=O)[C@H](CC(C)C)NC(=O)[C@H](CCC(N)=O)NC(=O)[C@H](CO)NC(=O)[C@H](C)NC(=O)COCCOCCNC(=O)COCCOCCNC(=O)C[C@H](NC(=O)CCCCCCCCCCCCCCCCCCC(=O)O)C(=O)O)[C@@H](C)O)[C@@H](C)O)C(=O)N[C@@H](CC(C)C)C(=O)N1CCC[C@H]1C(=O)N1CCC[C@H]1C(=O)N[C@H](C(=O)N[C@@H](CC(N)=O)C(=O)N[C@H](C(=O)NCC(=O)N[C@@H](CO)C(=O)N[C@@H](CC(N)=O)C(=O)N[C@H](C(=O)N1C[C@H](O)C[C@H]1C(N)=O)[C@@H](C)O)C(C)C)[C@@H](C)O
B2: M29 (peptide)
peptide: {C20 diacid-Trx′}-ASQLSTAATQRLADFLRHSSNNLKPILPPTNVGSNT[Hyp]-NH2
modifications: reading uncertain
B3: M30 (peptide)
peptide: {C20 diacid-Inp′}-ASQLSTAATQRLADFLRHSSNNLKPILPPTNVGSNT[Hyp]-NH2
B4: M32 (peptide)
peptide: {C20 diacid}-E[AEEA][AEEA]ASQLSTAATQRLADFLRHSSNNLKPILPPTNVGSNT[Hyp]-NH2
SMILES: CC[C@H](C)[C@H](NC(=O)[C@@H]1CCCN1C(=O)[C@H](CCCCN)NC(=O)[C@H](CC(C)C)NC(=O)[C@H](CC(N)=O)NC(=O)[C@H](CC(N)=O)NC(=O)[C@H](CO)NC(=O)[C@H](CO)NC(=O)[C@H](Cc1c[nH]cn1)NC(=O)[C@H](CCCNC(=N)N)NC(=O)[C@H](CC(C)C)NC(=O)[C@H](Cc1ccccc1)NC(=O)[C@H](CC(=O)O)NC(=O)[C@H](C)NC(=O)[C@H](CC(C)C)NC(=O)[C@H](CCCNC(=N)N)NC(=O)[C@H](CCC(N)=O)NC(=O)[C@@H](NC(=O)[C@H](C)NC(=O)[C@H](C)NC(=O)[C@@H](NC(=O)[C@H](CO)NC(=O)[C@H](CC(C)C)NC(=O)[C@H](CCC(N)=O)NC(=O)[C@H](CO)NC(=O)[C@H](C)NC(=O)COCCOCCNC(=O)COCCOCCNC(=O)[C@H](CCC(=O)O)NC(=O)CCCCCCCCCCCCCCCCCCC(=O)O)[C@@H](C)O)[C@@H](C)O)C(=O)N[C@@H](CC(C)C)C(=O)N1CCC[C@H]1C(=O)N1CCC[C@H]1C(=O)N[C@H](C(=O)N[C@@H](CC(N)=O)C(=O)N[C@H](C(=O)NCC(=O)N[C@@H](CO)C(=O)N[C@@H](CC(N)=O)C(=O)N[C@H](C(=O)N1C[C@H](O)C[C@H]1C(N)=O)[C@@H](C)O)C(C)C)[C@@H](C)O
B5: M31 (peptide)
peptide: {C20 diacid-γGlu-AEEA-AEEA}-ASQLSTAATQRLADFLRHSSNNLKPILPPTNVGSNT[Hyp]-NH2
SMILES: CC[C@H](C)[C@H](NC(=O)[C@@H]1CCCN1C(=O)[C@H](CCCCN)NC(=O)[C@H](CC(C)C)NC(=O)[C@H](CC(N)=O)NC(=O)[C@H](CC(N)=O)NC(=O)[C@H](CO)NC(=O)[C@H](CO)NC(=O)[C@H](Cc1c[nH]cn1)NC(=O)[C@H](CCCNC(=N)N)NC(=O)[C@H](CC(C)C)NC(=O)[C@H](Cc1ccccc1)NC(=O)[C@H](CC(=O)O)NC(=O)[C@H](C)NC(=O)[C@H](CC(C)C)NC(=O)[C@H](CCCNC(=N)N)NC(=O)[C@H](CCC(N)=O)NC(=O)[C@@H](NC(=O)[C@H](C)NC(=O)[C@H](C)NC(=O)[C@@H](NC(=O)[C@H](CO)NC(=O)[C@H](CC(C)C)NC(=O)[C@H](CCC(N)=O)NC(=O)[C@H](CO)NC(=O)[C@H](C)NC(=O)COCCOCCNC(=O)COCCOCCNC(=O)CC[C@H](NC(=O)CCCCCCCCCCCCCCCCCCC(=O)O)C(=O)O)[C@@H](C)O)[C@@H](C)O)C(=O)N[C@@H](CC(C)C)C(=O)N1CCC[C@H]1C(=O)N1CCC[C@H]1C(=O)N[C@H](C(=O)N[C@@H](CC(N)=O)C(=O)N[C@H](C(=O)NCC(=O)N[C@@H](CO)C(=O)N[C@@H](CC(N)=O)C(=O)N[C@H](C(=O)N1C[C@H](O)C[C@H]1C(N)=O)[C@@H](C)O)C(C)C)[C@@H](C)O
B6: M27 (peptide)
peptide: {C20 diacid-βAsp}-ASQLSTAATQRLADFLRHSSNNLKPILPPTNVGSNT[Hyp]-NH2
SMILES: CC[C@H](C)[C@H](NC(=O)[C@@H]1CCCN1C(=O)[C@H](CCCCN)NC(=O)[C@H](CC(C)C)NC(=O)[C@H](CC(N)=O)NC(=O)[C@H](CC(N)=O)NC(=O)[C@H](CO)NC(=O)[C@H](CO)NC(=O)[C@H](Cc1c[nH]cn1)NC(=O)[C@H](CCCNC(=N)N)NC(=O)[C@H](CC(C)C)NC(=O)[C@H](Cc1ccccc1)NC(=O)[C@H](CC(=O)O)NC(=O)[C@H](C)NC(=O)[C@H](CC(C)C)NC(=O)[C@H](CCCNC(=N)N)NC(=O)[C@H](CCC(N)=O)NC(=O)[C@@H](NC(=O)[C@H](C)NC(=O)[C@H](C)NC(=O)[C@@H](NC(=O)[C@H](CO)NC(=O)[C@H](CC(C)C)NC(=O)[C@H](CCC(N)=O)NC(=O)[C@H](CO)NC(=O)[C@H](C)NC(=O)C[C@H](NC(=O)CCCCCCCCCCCCCCCCCCC(=O)O)C(=O)O)[C@@H](C)O)[C@@H](C)O)C(=O)N[C@@H](CC(C)C)C(=O)N1CCC[C@H]1C(=O)N1CCC[C@H]1C(=O)N[C@H](C(=O)N[C@@H](CC(N)=O)C(=O)N[C@H](C(=O)NCC(=O)N[C@@H](CO)C(=O)N[C@@H](CC(N)=O)C(=O)N[C@H](C(=O)N1C[C@H](O)C[C@H]1C(N)=O)[C@@H](C)O)C(C)C)[C@@H](C)O
B7: M28 (peptide)
peptide: {C20 diacid}-DASQLSTAATQRLADFLRHSSNNLKPILPPTNVGSNT[Hyp]-NH2
SMILES: CC[C@H](C)[C@H](NC(=O)[C@@H]1CCCN1C(=O)[C@H](CCCCN)NC(=O)[C@H](CC(C)C)NC(=O)[C@H](CC(N)=O)NC(=O)[C@H](CC(N)=O)NC(=O)[C@H](CO)NC(=O)[C@H](CO)NC(=O)[C@H](Cc1c[nH]cn1)NC(=O)[C@H](CCCNC(=N)N)NC(=O)[C@H](CC(C)C)NC(=O)[C@H](Cc1ccccc1)NC(=O)[C@H](CC(=O)O)NC(=O)[C@H](C)NC(=O)[C@H](CC(C)C)NC(=O)[C@H](CCCNC(=N)N)NC(=O)[C@H](CCC(N)=O)NC(=O)[C@@H](NC(=O)[C@H](C)NC(=O)[C@H](C)NC(=O)[C@@H](NC(=O)[C@H](CO)NC(=O)[C@H](CC(C)C)NC(=O)[C@H](CCC(N)=O)NC(=O)[C@H](CO)NC(=O)[C@H](C)NC(=O)[C@H](CC(=O)O)NC(=O)CCCCCCCCCCCCCCCCCCC(=O)O)[C@@H](C)O)[C@@H](C)O)C(=O)N[C@@H](CC(C)C)C(=O)N1CCC[C@H]1C(=O)N1CCC[C@H]1C(=O)N[C@H](C(=O)N[C@@H](CC(N)=O)C(=O)N[C@H](C(=O)NCC(=O)N[C@@H](CO)C(=O)N[C@@H](CC(N)=O)C(=O)N[C@H](C(=O)N1C[C@H](O)C[C@H]1C(N)=O)[C@@H](C)O)C(C)C)[C@@H](C)O

The assay deals with T1, human amylin receptor on CHO-K1/Ga15/AMY3 cells (amylin receptor/CRE-luc cell line) (human). Kind of assay: cell-based or functional assay.
Turning to B1, the EC50 (luciferase assay, amylin receptor/CRE-luc CHO cells) was found to be 145 pM and the Relative activity (the EC50 ratio of Cagrilintide to the compound) is 37%.

As to B2, the EC50 (luciferase assay, amylin receptor/CRE-luc CHO cells) is 122 pM and the Relative activity (the EC50 ratio of Cagrilintide to the compound) was 412%.

In the case of B3, the EC50 (luciferase assay, amylin receptor/CRE-luc CHO cells) was found to be 39 pM and the Relative activity (the EC50 ratio of Cagrilintide to the compound) was determined as 130%.

For the molecule B4, the EC50 (luciferase assay, amylin receptor/CRE-luc CHO cells) turned out to be 115 pM and the Relative activity (the EC50 ratio of Cagrilintide to the compound) is 44%.

Regarding B5, the EC50 (luciferase assay, amylin receptor/CRE-luc CHO cells) was 168 pM and the Relative activity (the EC50 ratio of Cagrilintide to the compound) amounted to 30%.

As for B6, the EC50 (luciferase assay, amylin receptor/CRE-luc CHO cells) amounted to 64 pM and the Relative activity (the EC50 ratio of Cagrilintide to the compound) came out at 78%.

On to B7, for which the EC50 (luciferase assay, amylin receptor/CRE-luc CHO cells) was determined as 39 pM and the Relative activity (the EC50 ratio of Cagrilintide to the compound) amounted to 128%.

For the origin of these results see US20260265329A1, “POLYPEPTIDE AND DERIVATIVE THEREOF, COMPOSITION, AND USE THEREOF” (HANGZHOU SCIWIND BIOSCIENCES CO., LTD., priority 2023, published 2026).
